Assay results: the nanobody polyreactivity screen of Harvey et al. (2022)

Test: yeast display, Sf9 membrane polyspecificity reagent, FACS + sequencing; frameworks hold sequencing errors
Procedure, shortened: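 Galactose-induced (36–48 hours) yeast carrying a synthetic nanobody display library were exposed to 10% biotinylated, detergent-solubilized Sf9 membrane reagent at 4 °C for 1 hour. FACS followed streptavidin microbead enrichment, using low and high (top ~1%) gates for expression (anti-HA) and reagent binding (streptavidin). Colony PCR, MiSeq 2 × 250 sequencing and CDR-length filtering followed. Labels for polyreactivity reflect the gate of origin.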

Sequence | polyreactivity (PSR sort gate)
QVQLVESGGGLVQAGGSLRLSCAASGRTFRYNDRGWYRQAPGKERELVASISRISGSTYYADSVKGRFTISRDNAKNTVYLQMNSLKAEVTAVFYCAATVKLKQYPYFGFGYWGQGTQVTVSS | high polyreactivity
QVQLVESGGGLVQAGGSLRLSCAASGRTFRYNTMGWYRQAPGKERELVASISSGDRTYYADSVKGRFTISRDNAKNTVYLQMNSLKPEDTAVYYCAKDVGYWYYYWGQGTQVTVSS | high polyreactivity
QVQLVESGGGLVQAGGSLRLSCAASGRTFRYYALGWYRQAPGKERELVASITGSGGSTTYADSVKGRFTISRDNAKNTVYLLMNSLKPEDTAVYYCAVRYPYYSYRAKLGYWGQGTQVTVSS | high polyreactivity
QVQLVESGGGLVQAGGSLRLSCAASGRTFRYYAMGRSRQAPGTERELVAAISRSGGRTNYADSVKGRFTISRDNAKNTVYLQMNSLIPEDTAVDYCAADFRYTFDSWGQGTQVTVSS | high polyreactivity
QVQLVESGGGLVQAGGSLRLSCAASGRTFRYYAMGWYRQAPGKEREFVAAITKRGGSTYYADSVKGRFTISRDNAKNTVYLQMNSLKPEDTAVYYCAAYPAAQFSTFSYDSWGQGTQVTVSS | high polyreactivity
QVQLVESGGGLVQAGGSLRLSCAASGRTFRYYAMGWYRQAPGKERELVAAIDTSSGSTYYADSVKGRFTISRDYAKNTVYLQMNSLKPEDTAVYYCNANWWIPLIYDYWGQGTQVTVSS | low polyreactivity
QVQLVESGGGLVQAGGSLRLSCAASGRTFRYYAMGWYRQAPGKERELVAAISSRGNTYYADSVKGRFTISRDNAKNTVYLQLNSLKPEDTAVYYCAAYVYRVQYDFVYWGQGTQVTVSS | high polyreactivity
QVQLVESGGGLVQAGGSLRLSCAASGRTFRYYAMGWYRQAPGKERELVAAITGSGGSTYYADSVKGRFTISRDTAKNTVYLQMNSLKPEDTAVYYCATRWALRWRGGYWGQGTQVTVSS | high polyreactivity
QVQLVESGGGLVQAGGSLRLSCAASGRTFRYYAMGWYRQAPGKERELVAAITVTVTSTFYADSVKGRFTISRDNAKNTVYLQMNSLKPEDTAVYYCAKVDRQYPGQYYYWGQGTQVTVSS | low polyreactivity
QVQLVESGGGLVQAGGSLRLSCAASGRTFRYYAMGWYRQAPGKERELVAAITWSVGSTYYADSVKGRFTISRDNAKNTVYLQMNSRKPEDTAVYYCAADRVRGGYRTYYWVVHFDYWGQGTQVTVSS | high polyreactivity
QVQLVESGGGLVQAGGSLRLSCAASGRTFRYYAMGWYRQAPGKERELVARISWRGDSTRYADSVKGRFTISRDNAKNTVYVQMNSLKPEDTAVYYCAADTRFLVGPDKYGYWGQGTQVTESS | high polyreactivity
QVQLVESGGGLVQAGGSLRLSCAASGRTFRYYAMGWYRQAPGKERELVATSTGSGGSTYYADSVKGRFTISRDNSKNTVYLQMNSLKPEDTAVYYCNARKVRYPYRWYDYWGQGTQVTVSS | high polyreactivity
QVQLVESGGGLVQAGGSLRLSCAASGRTFRYYAMGWYRQARGKERELVAAISKTGGSTYYADSVKGRFTISRDNAKNTVYLQMNSQKPEDTAVYYCAAQSGWGYSTFYYWGQGTQVTVSS | high polyreactivity
QVQLVESGGGLVQAGGSLRLSCAASGRTFRYYSMGWYRQAPGKERELVAAITGSGARTYYADSVKGRFTISRDNAKNTVYLQMNSLKPEDTAVYYCAADSLFYDDRYDYWGQGTQVTVSS | high polyreactivity
QVQLVESGGGLVQAGGSLRLSCAASGRTFRYYTMGWYRQAPGKEREFVAAISSTGGTYYADSVKGRFTISRDNAKNTVYLLMNSLNPEDTAVYYCAATFIQVVVNVQLYDYDYWGQGTQVTVSS | low polyreactivity
QVQLVESGGGLVQAGGSLRLSCAASGRTFRYYTMGWYRQAPGKEREFVAAISSTGGTYYADSVKGRFTISRDNAKNTVYLQMNRLKPEDSAVYYCAATFIQVVVNVQLYDYDYWGQGTQVTVSS | low polyreactivity
QVQLVESGGGLVQAGGSLRLSCAASGRTFRYYTMGWYRQAPGKERELVAAITRNGGRTYYADSVKGRFTISRDNAKNTVDLQMNSLKPEDPAVYYCAPGTYDGGYHYDYWGQGTQVTVSS | high polyreactivity
QVQLVESGGGLVQAGGSLRLSCAASGRTFRYYTMGWYRQAPGKERQFVAAISSTGGTYYADSVKGRFTISRDNAKNTVYLQMNSLKPADTAVYYCAATFIQVVVNVQLYDYDYWGQGTQVTVSS | low polyreactivity
QVQLVESGGGLVQAGGSLRLSCAASGRTFRYYVMGWYRPAPGKERELVASITSNGDSTYYADSVKGRFTISRDNAKNTVFLQWKSLKPEDTAVDYCAVRWRDYRGSYRGFEYWGQGSQVTVSS | high polyreactivity
QVQLVESGGGLVQAGGSLRLSCAASGRTFRYYVMGWYRQAPGKERELVAGISGSGGNTYYADSVKGRFTISRDNAKNTVYLQMNSLKPEDTAVYYCAARQRGSVGVPYNSWGQGTQVTVSW | high polyreactivity
QVQLVESGGGLVQAGGSLRLSCAASGRTFSANAMGWYRQAPGKDRELVAANRRTGGRTYYADSVKGRFTISRDNAKNTDYLQMNSLKPEDTAVYYCKAVNKPYTREYGYDYWGQGTQGTVSS | high polyreactivity
QVQLVESGGGLVQAGGSLRLSCAASGRTFSANAMGWYRQAPGKERELVATISSGGRTNYADSVKGRFTISRDNAKNTVYLQMNSLKPEDTAVYYCAKRGPYNRWYGRYDYWGQGTQVTVSS | low polyreactivity

Sequence | polyreactivity (PSR sort gate)
QVQLVESGGGLVQAGGSLRLSCAASGRTFSAYAMGWYRQAPGKEMELVARITSVDSTNYADSVKGRFTISRDNAKNTVYLQMNSLKPEDTAVYYCNATFGYPFVDYDDYWGQGTQVTVSS | low polyreactivity
QVQLVESGGGLVQAGGSLRLSCAASGRTFSAYAMGWYRQAPGKERELVARITSVDSTNYADSVKGRFTISRDNAKNSVYLQMNSLKPEDTAVYDCNATFGYPFVDYDDYWGQGTQVTVSS | low polyreactivity
QVQLVESGGGLVQAGGSLRLSCAASGRTFSENAMGWYRQAPGKERELVAAISGSGGRTYYADSVKGRFTISRDNAKNTVYLQMNILKPEDTAVYFCGKVTRYGSTYDYWGQGTQVTVSS | high polyreactivity
QVQLVESGGGLVQAGGSLRLSCAASGRTFSFYAMGWYRQAPGKERELVAAISSGGGRTYYADSVKGRFTISRDNAKNTVYLQMHSLKPEDTAVYYCAAYRAYSGEFDYWGQGTQVTVSS | high polyreactivity
QVQLVESGGGLVQAGGSLRLSCAASGRTFSGNAMGWYRQAPGKERELVAAITSGSSTYYADSVKGRFTISRDNAKNTVYLQMNSLKPEDTAVYYCAARSVYGSSFLSYGYWGQGTQVTVSS | high polyreactivity
QVQLVESGGGLVQAGGSLRLSCAASGRTFSGNTMGWYRQAPGKERELVAAITGRGGSTYYADSVKGRFTISRDNANNTVYLQMNSLKPEDTAVYYCAALRYTFAGRFDYWGQGTQVTVSS | high polyreactivity
QVQLVESGGGLVQAGGSLRLSCAASGRTFSGYAMGWYRQAPGKERELVAAITNRGGTYYADSVKGRFTISRDNAKNTVYVQMNSLKPEDTAVYSCAAYKYYARWVRGYDSWGQGTQVTVSS | high polyreactivity
QVQLVESGGGLVQAGGSLRLSCAASGRTFSGYTMGWYRQAPGKERELVAGISRSGGRTYYADSVKGRFTISRDNAKKTVYLQMNSLKPEDTAVYYCATPYRRLNTWIYDYWGQGTQVTVSS | high polyreactivity
QVQLVESGGGLVQAGGSLRLSCAASGRTFSGYVMGWYRQAPGKERELVATINGSGASTYYADSVKGRFTISRDNAKNTVYLQRKSLKPEDSAVYYCAAKRYRPKYEYYYWGQGTQVTVSS | high polyreactivity
QVQLVESGGGLVQAGGSLRLSCAASGRTFSHNAMGWYRQAPGKERELVAAISRGGGTNYADSVKGRFTISRDNAKNTVYLQMNSLKPEDTAVYYCAAAGYDSNGRYYYWGQGTQVTVSS | high polyreactivity
QVQLVESGGGLVQAGGSLRLSCAASGRTFSHNTMGWYRQAPGKERELVAAITGSGASTYYADSVKGRFTISRDNAKNTVYLQMNSLKPEDTAVYYCAKVSRQSWYEYDSWGQVTQVTVSS | low polyreactivity
QVQLVESGGGLVQAGGSLRLSCAASGRTFSINAMGWYRQAPGKERELVAAITWSGGSTYYADSVKGRFTISRDNAKNTVYLQMNSLKPEDTAVYYCNAGLGKFPVKGGRRYRLDYWGQGTQVTVSS | low polyreactivity
QVQLVESGGGLVQAGGSLRLSCAASGRTFSIYAMGWYRQAPGKERELVASITNSDGSTYYADSVKGRFTISRDNAKNTVYLQMNSLKPEDTAVYYWNVDSGKYWSLWTYVQYDDYWGQGTQVTVSS | low polyreactivity
QVQLVESGGGLVQAGGSLRLSCAASGRTFSKNVMGWYRQAPGKEREFVARISDSGVGTYYADSVKGRFTISRDNAKNTVYLQMNSLKPEDTAVYYCAAAVWYRGWYRYDYWGQGTQVTVSS | low polyreactivity
QVQLVESGGGLVQAGGSLRLSCAASGRTFSKNVMGWYRQAPGKEREFVARISDSGVGTYYADSVKGRFTISRDNAKNTVYLQMNSLKPEDTAVYYCDKQYGGRYGYWGQGTQVTVSS | low polyreactivity
QVQLVESGGGLVQAGGSLRLSCAASGRTFSKYAMGWYRQAPGKERELVAAITDGRGDTYYADSVKGRFTISRDNEKNTVYLQMNSLKPEDTAVYYCAADPGYSLYEYWGQGTQVTVSS | low polyreactivity
QVQLVESGGGLVQAGGSLRLSCAASGRTFSKYAMGWYRQAPGKERELVAAITSGGGTYYADSVKGRFTNSRDNAKNTVYLQMNSLIPEDTGVYSCAVSVTTVSTYDYWGQGTQVTVSS | low polyreactivity
QVQLVESGGGLVQAGGSLRLSCAASGRTFSKYTMGWYRQAPGKERELVAVISRSGTRTYYADSVKGRFTISRDNAKNTVYLQMNSLKPEDTAVYYCAAKDERRSFGMGYWGQGPQVTVSS | high polyreactivity
QVQLVESGGGLVQAGGSLRLSCAASGRTFSLNTMGWYRQAPGTERELVATISYSGDRTYYADSVKGRFTISRDNAKNTVYLQMNSLKPEETAVYYCAAQYWGRSYAGRYDYWGQGTQVTVSS | high polyreactivity
QVQLVESGGGLVQAGGSLRLSCAASGRTFSLYTMGWYRQAPGKERELVAAISSGDSTNYADSVKGRFTISRDNAKNTVYLQMNSLKPEDTAVYYCAKQQDSTSEFSTSDRRQYDYWGQGTQVTVSS | low polyreactivity
QVQLVESGGGLVQAGGSLRLSCAASGRTFSNAMGWYRQAPGKERELVADISSGGSTNYADSVKGRFTISRDNAKNTVYLQMNSLKPEDTAVYYCAAVSGSLYGYSDDYWGQGTQVTVSS | low polyreactivity
